# Data: US20190225658A1
# Assays:
# Kir3.1/Kir3.4 channel [1] = assay: cell-based or functional assay
# Kir3.1/Kir3.4 channel [2] = assay: flow cytometry dose response curve of binding on HEK cells stably transfected with Kir3.1/3.4
# Kir3.1/Kir3.4 channel [3] = assay: flow cytometry, HEK cells stably transfected with Kir3.1/3.4, labeled with 10 nM; unlabeled cells 162 A.U.
# Chain of Kir3.1/Kir3.4 channel (P48549 whole entry, chain 1 of 2): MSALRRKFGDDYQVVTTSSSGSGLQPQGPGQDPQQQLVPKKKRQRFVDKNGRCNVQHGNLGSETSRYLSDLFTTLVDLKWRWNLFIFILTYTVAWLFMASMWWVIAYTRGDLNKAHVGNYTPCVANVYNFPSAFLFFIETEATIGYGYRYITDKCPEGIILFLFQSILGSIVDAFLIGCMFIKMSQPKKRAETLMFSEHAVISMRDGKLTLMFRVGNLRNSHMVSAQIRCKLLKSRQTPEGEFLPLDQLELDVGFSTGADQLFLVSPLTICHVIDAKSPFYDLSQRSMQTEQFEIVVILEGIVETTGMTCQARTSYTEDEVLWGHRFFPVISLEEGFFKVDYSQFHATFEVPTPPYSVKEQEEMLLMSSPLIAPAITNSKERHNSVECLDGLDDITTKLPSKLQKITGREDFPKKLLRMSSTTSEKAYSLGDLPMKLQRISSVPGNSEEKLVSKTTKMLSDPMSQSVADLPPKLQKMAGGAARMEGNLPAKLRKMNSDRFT
# Chain of Kir3.1/Kir3.4 channel (P48544 whole entry, chain 2 of 2, further chain): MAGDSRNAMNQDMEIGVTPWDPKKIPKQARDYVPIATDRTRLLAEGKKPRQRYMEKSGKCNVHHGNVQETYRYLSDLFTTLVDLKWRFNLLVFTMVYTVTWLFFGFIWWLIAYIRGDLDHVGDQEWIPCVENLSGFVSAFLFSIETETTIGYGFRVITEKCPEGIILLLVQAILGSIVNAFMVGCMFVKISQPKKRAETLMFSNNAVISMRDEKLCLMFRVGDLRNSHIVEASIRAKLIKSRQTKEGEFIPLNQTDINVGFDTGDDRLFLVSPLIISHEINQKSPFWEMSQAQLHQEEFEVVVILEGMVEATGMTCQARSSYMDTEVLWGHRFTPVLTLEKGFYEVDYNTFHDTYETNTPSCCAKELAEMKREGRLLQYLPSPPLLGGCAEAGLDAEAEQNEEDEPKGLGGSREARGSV
Substance,"IKACh block, patch clamp, dose response curve (Kir3.1/Kir3.4 channel [1]) [nM]",IC50 (Kir3.1/Kir3.4 channel [2]) [nM],median fluorescence (Kir3.1/Kir3.4 channel [3]) [A.U.]
TertiapinQ (peptide),70,–,–
TertiapinQ labeled with ATT0633 (peptide),–,11,3840
TertiapinQ peptibody (Fc fusion),16,–,–
